Source: publication PMC12059646, “Functional Characterization of Luciferase in a Brittle Star Indicates Parallel Evolution Influenced by Genomic Availability of Haloalkane Dehalogenase” (Molecular Biology and Evolution, 2025)

B1: RLuc (Renilla reniformis) (protein)
chain: MTSKVYDPEQRKRMITGPQWWARCKQMNVLDSFINYYDSEKHAENAVIFLHGNAASSYLWRHVVPHIEPVARCIIPDLIGMGKSGKSGNGSYRLLDHYKYLTAWFELLNLPKKIIFVGHDWGACLAFHYSYEHQDKIKAIVHAESVVDVIESWDEWPDIEEDIALIKSEEGEKMVLENNFFVETMLPSKIMRKLEPEEFAAYLEPFKEKGEVRRPTLSWPREIPLVKGGKPDVVQIVRNYNAYLRASDDLPKMFIESDPGFFSNAIVEGAKKFPNTEFVKVKGLHFSQEDAPDEMGKYIKSFVERVLKNEQ
notes: codon-optimised synthetic gene in pET21b, E. coli BL21, Ni-NTA purified

Tests used:
AfLuc = system: T1, AfLuc; experiment: luminescence steady-state kinetics, global numerical analysis; assay type: biochemical, Amphiura filiformis; details: 25 nM protein
T1 construct: codon-optimised synthetic gene in pET21b, E. coli BL21, Ni-NTA purified

[1] = substrate: Oc1ccc(Cc2nc3c(Cc4ccccc4)nc(-c4ccc(O)cc4)cn3c2O)cc1; experiment: as above; assay type: biochemical, Renilla reniformis; details: 25 nM protein

| Molecule | Km (AfLuc) [µM] | Km [1] [µM] | kcat [1] [s⁻¹] |
| --- | --- | --- | --- |
| Oc1ccc(Cc2nc3c(Cc4ccccc4)nc(-c4ccc(O)cc4)cn3c2O)cc1 [coelenterazine] | 1.21 ± 0.03 | – | – |
| B1 | – | 0.91 ± 0.05 | 4.2 ± 0.2 |
